US20250074980A1 (BRIGHAM AND WOMEN S HOSPITAL, published 2025)

Key:
[1] = molecular target: T1, GST-CEACAM1 (human, UniProt P13688 35-141, limits assumed); test: competition ELISA vs parental murine antibody, experiment 1
T1 construct: also called human CEACAM1-GST protein
T1 sequence: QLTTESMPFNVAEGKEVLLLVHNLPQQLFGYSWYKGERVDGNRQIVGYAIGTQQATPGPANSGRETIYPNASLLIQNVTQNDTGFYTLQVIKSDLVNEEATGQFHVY

[2] = molecular target: T1, GST-CEACAM1; test: competition ELISA vs parental murine antibody, experiment 2
[3] = molecular target: T2, CEACAM5 on transfected HeLa cells (human, UniProt P06731 35-685); test: flow cytometry, transfected HeLa
T2 construct: whole, on cells; also called HeLa-CEACAM5; HeLa C5
T2 sequence (looked up): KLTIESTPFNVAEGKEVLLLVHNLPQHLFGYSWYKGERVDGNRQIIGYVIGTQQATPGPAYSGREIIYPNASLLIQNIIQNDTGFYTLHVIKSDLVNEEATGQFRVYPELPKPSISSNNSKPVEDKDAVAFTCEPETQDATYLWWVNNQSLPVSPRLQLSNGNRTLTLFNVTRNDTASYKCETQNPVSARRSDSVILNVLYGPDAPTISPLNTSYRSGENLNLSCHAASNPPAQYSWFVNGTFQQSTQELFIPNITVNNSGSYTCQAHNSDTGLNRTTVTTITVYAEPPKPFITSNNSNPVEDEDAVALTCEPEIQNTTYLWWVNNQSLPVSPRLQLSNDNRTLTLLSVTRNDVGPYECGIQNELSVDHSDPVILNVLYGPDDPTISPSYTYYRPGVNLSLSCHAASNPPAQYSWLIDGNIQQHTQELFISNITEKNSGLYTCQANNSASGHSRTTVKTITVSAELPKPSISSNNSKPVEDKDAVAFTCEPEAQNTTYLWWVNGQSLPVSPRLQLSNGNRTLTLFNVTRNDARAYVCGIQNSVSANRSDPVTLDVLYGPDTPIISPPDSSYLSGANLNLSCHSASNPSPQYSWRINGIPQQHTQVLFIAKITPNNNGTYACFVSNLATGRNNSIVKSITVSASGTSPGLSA

[4] = molecular target: T3, CEACAM6 on transfected HeLa cells (human, UniProt P40199 35-320); test: flow cytometry, transfected HeLa
T3 construct: whole, on cells; also called HeLa-CEACAM6; HeLa C6
T3 sequence (looked up): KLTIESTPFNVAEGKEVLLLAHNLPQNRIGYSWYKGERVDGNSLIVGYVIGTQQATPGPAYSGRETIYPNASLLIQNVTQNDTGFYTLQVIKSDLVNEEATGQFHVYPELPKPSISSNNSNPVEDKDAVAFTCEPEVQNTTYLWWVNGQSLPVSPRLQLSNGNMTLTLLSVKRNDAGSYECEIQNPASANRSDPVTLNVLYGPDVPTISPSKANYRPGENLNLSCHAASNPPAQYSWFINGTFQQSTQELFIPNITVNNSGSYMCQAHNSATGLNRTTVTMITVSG

[5] = molecular target: T4, CEACAM1 on transfected HeLa cells (human, UniProt P13688 35-526); test: flow cytometry, transfected HeLa
T4 construct: also called HeLa-CEACAM1; HeLa C1
T4 sequence: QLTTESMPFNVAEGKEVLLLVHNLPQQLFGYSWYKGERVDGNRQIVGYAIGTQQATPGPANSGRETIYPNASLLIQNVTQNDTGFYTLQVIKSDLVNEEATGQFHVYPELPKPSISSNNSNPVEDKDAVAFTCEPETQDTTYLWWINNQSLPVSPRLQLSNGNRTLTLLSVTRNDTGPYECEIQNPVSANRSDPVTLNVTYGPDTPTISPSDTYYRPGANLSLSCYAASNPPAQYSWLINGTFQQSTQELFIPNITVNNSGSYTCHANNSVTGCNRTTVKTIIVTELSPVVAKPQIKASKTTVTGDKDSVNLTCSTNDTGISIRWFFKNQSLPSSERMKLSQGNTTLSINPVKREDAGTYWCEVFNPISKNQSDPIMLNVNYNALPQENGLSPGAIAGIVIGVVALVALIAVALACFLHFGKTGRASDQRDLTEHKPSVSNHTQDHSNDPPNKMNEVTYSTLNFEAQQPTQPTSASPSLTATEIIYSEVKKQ

[6] = molecular target: T5, His-tagged CEACAM1 (human, UniProt P13688 35-428); test: SPR multi-cycle
T5 construct: 45 kDa SPR analyte; also called CEACAM1-HIS; CEACAM1 analyte
T5 sequence: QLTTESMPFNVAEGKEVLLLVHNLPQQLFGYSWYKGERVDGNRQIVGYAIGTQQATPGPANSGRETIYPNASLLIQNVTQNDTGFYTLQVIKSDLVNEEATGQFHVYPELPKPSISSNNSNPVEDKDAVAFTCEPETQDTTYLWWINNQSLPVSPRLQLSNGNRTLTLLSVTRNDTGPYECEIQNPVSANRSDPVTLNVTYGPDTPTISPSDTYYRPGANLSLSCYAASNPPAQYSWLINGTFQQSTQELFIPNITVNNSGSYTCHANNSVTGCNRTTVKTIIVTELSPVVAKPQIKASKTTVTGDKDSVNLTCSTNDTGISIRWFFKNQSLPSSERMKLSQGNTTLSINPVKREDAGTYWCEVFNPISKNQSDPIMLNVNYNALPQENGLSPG
Method in brief: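 Kon, koff, Kd and relative KD were derived from multi-cycle surface plasmon resonance sensorgrams recorded on a Biacore T200. Runs were at 25° C in HBS-P+ (pH 7.4), with purified antibody at 1 μg/ml captured to ~75 RU on a Series S Protein A chip. His-tagged CEACAM1 was passed over as analyte at 80 μl/min in 2-fold dilutions from 200 to 3.125 nM or from 100 to 1.5625 nM, with 50 or 150 seconds of association, 100 seconds of dissociation and glycine-HCl pH 1.5 for regeneration.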

[7] = molecular target: T1, GST-CEACAM1; test: competition ELISA vs parental murine antibody
Description: The binding of the purified antibodies to human CEACAM1 was assessed in a competition ELISA assay. Nunc Immuno MaxiSorp 96 well flat bottom microtitre plates were pre-coated with 1 μg/ml of GST-CEACAM1 in 1×PBS, overnight at 4° C. The following day the plates were blocked for 1 hour at room temperature (“RT”) with 2% BSA/PBS before washing 3× with PBST pH 7.4. A 3-fold dilution series of the chimeric antibody chimeric antibody VH0/Vκ0, an irrelevant IgG4 antibody, and the humanized CEACAM1 antibodies from 100 μg/ml to 0.07 or 0.002 μg/ml were pre-mixed with a constant concentration of parental murine antibody (0.45 μg/ml final concentration), added to the plate and incubated for 1 hour at room temperature. Following 3×PBST washes, the binding of the parental murine CEACAM1 antibody was detected with an anti-mouse-HRP and TMB substrate. The reaction was stopped with 3 M HCl, absorbance read at 450 nm on a Dynex Technologies MRX TC II plate reader and the binding curves plotted. The binding of the humanized CEACAM antibody variants to CEACAM1 was compared to the chimeric antibody (VHO/Vκ0), which was included on each plate.

B1: VH0/Vκ0 S29A (antibody, IgG4, V domains shown)
VH: EVQLVESGGDLVKPGGSLKLACAASGFIFSSHGMSWVRQTPDKRLEWVATISSGGTYTYYPDSVKGRFTISRDNDKNTLYLQMNSLKSEDTAMYYCARHDFDYDAAWFAYWGQGTLVTVSS
VL: QIVLTQSPALMSASPGVKVTMTCSANSAVSYMYWYRQKPRSSPKPWIYLTSNLASGVPARFSGSGSGTSYSLTISSMEAEDAATYYCQQWSSNPPTFGSGTKLEIK
notes: aglycosylated chimeric, IgG4 (S241P), kappa
- relative IC50 [1]: 0.96
- relative IC50 [2]: 0.72
- relative amount of cells bound [3]: 9.82
- relative amount of cells bound [4]: 0
- relative amount of cells bound [5]: 77.9
- Kd [6]: 110 nM
- koff [6]: 0.0277 s⁻¹
- kon [6]: 251000 M⁻¹ s⁻¹
- relative KD [6]: 1.05
- average relative IC50 [7]: 0.84
